Data on 2 substances can be found in patent US20110256172A1.

For the assay, the target named is Bacillus anthracis protective antigen (PA83, List Biological Laboratories) (Bacillus anthracis) (UniProt P13423). The experiment in a line: cell-based or functional assay.
Sequence of UniProt P13423 (P13423 30-764): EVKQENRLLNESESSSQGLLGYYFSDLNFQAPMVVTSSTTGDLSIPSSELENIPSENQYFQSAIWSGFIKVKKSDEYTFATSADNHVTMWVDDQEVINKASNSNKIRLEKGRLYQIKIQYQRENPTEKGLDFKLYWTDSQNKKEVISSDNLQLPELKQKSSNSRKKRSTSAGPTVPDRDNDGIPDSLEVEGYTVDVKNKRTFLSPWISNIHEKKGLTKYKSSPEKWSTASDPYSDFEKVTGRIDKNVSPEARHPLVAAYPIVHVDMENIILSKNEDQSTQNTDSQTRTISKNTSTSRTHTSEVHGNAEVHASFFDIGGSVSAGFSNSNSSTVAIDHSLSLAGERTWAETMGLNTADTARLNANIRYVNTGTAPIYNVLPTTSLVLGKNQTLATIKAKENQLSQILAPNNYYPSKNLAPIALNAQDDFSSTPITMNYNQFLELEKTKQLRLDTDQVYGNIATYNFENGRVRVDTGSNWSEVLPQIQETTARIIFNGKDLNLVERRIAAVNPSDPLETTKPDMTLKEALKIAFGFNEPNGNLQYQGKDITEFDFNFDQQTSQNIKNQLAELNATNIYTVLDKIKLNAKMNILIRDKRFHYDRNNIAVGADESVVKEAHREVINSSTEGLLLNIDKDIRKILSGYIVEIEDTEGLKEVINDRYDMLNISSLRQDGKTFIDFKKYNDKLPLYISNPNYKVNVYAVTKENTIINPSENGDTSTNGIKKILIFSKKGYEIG

Regarding “Sera of the three rabbits immunized with MAP305 (four copies of P30-PA 305-319)”, the peak neutralization titer (TNA) (fold over the control PA antiserum) was determined as 19.
Then “Sera of the three rabbits immunized with MAP304 (four copies of P30-PA 304-319)”, with 23.
